Reference: patent US20230279079A1 (published 2023)

Target: RBD-VLP (SARS-CoV-2, UniProt P0DTC2 340-538)

B1: FI-3A (antibody, V domains shown)
VH: EVQLLESGGGLIQPGGSLRLSCAASGFTVSSNYMSWVRQAPGKGLEWVSVIYSGGSTYYADSVKGRFTISRDNSKNTLYLQMNSLRAEDTAVYYCARDHVRPGMNIWGQGTMVTVSS
VL: not shown
B1 gave an IC50 of 3 nM.
